Literature values, collected in publication PMC4153603.

How the values were obtained:
[1] = target: Kv1.3 (Homo sapiens) (UniProt P22001)
[2] = target: Kv1.1 (Homo sapiens) (UniProt Q09470)
UniProt Q09470, sequence (Q09470 whole entry): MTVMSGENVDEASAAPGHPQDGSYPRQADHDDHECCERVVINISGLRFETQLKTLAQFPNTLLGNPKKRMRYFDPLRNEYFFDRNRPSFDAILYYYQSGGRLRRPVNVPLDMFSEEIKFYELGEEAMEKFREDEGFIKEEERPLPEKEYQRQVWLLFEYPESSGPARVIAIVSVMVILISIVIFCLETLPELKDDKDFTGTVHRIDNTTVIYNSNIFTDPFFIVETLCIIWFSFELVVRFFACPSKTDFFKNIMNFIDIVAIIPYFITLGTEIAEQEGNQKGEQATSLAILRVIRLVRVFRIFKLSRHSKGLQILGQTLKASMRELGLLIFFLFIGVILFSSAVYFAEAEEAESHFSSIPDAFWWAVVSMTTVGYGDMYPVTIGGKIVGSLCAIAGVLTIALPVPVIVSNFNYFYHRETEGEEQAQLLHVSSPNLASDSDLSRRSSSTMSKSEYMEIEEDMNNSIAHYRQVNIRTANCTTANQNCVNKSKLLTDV

UniProt P22001, sequence (P22001 whole entry): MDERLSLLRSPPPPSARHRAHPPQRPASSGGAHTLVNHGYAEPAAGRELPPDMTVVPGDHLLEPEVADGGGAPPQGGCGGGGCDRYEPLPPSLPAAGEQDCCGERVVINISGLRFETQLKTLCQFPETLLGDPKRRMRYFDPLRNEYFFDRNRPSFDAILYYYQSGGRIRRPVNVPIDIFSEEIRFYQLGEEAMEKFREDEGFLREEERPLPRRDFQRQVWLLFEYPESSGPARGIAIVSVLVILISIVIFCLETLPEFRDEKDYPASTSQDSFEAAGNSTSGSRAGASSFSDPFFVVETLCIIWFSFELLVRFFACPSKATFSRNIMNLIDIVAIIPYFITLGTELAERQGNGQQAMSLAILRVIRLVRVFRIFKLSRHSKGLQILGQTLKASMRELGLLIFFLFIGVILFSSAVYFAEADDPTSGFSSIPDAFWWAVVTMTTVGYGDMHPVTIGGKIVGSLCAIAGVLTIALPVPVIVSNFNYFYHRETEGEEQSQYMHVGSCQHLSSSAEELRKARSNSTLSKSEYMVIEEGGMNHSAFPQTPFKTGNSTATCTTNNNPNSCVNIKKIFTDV

## ShK (from UniProt P29187)
[1]
  Kd: 0.01 nM
[2]
  Kd: 0.028 nM
